Assay results reported in patent US20180110875A1 (SUZHOU SUNCADIA BIOPHARMACEUTICALS, published 2018).
Where a chain is given by its changes, count along the chain named.

What was measured:
[1] = target: T1, human c-Met expressed on cells (human, UniProt P08581 25-1390); experiment: cell-based or functional assay
[2] = target: T1, human c-Met expressed on cells; experiment: cell-based or functional assay; remark: listed apart in the source
[3] = target: T1, human c-Met expressed on cells; experiment: cell-based or functional assay; remark: listed apart in the source
[4] = target: T2, Human c-Met ECD His Tag (Human c-Met ECD-his) recombinant protein (human, UniProt P08581 25-932); experiment: ELISA, human c-Met-His coated at 2 ug/ml
T2 construct: extracellular domain; Expressed in 293F cells; also called human c-Met-His; not shown: C-terminal His tag
T2 sequence (P08581 25-932): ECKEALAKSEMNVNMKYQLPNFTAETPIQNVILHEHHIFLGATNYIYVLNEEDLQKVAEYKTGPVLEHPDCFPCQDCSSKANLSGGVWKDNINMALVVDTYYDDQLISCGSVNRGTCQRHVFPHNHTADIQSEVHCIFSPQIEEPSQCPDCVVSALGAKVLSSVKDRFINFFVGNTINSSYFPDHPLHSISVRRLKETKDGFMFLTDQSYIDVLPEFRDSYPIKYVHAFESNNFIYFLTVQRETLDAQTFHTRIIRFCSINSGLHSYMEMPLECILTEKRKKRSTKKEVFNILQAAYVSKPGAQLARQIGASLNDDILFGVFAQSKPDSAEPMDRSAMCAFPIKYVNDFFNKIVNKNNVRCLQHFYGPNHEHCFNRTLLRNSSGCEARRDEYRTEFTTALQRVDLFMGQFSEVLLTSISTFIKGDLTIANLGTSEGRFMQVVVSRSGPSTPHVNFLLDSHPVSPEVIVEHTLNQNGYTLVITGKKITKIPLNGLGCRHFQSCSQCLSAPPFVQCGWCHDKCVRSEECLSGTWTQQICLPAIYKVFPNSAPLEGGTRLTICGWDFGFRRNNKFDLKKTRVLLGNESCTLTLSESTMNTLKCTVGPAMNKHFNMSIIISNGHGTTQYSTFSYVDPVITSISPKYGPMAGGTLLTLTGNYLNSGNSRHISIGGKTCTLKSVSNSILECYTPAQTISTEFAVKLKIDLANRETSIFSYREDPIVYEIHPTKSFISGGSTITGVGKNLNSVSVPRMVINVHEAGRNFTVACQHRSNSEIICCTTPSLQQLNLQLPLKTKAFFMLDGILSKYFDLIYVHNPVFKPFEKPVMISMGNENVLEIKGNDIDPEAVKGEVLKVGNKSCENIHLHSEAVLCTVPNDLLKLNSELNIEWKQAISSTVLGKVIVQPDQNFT

[5] = target: T3, Human c-Met extracellular region (ECD) and murine Fc region fusion protein (Human c-Met ECD-mFc) (human, UniProt P08581 25-932); experiment: blocking ELISA of HGF/c-Met binding: c-Met ECD-mFc coated, antibody titrated, human HGF 20 ng/ml
T3 construct: extracellular domain; Expressed in 293F cells; not shown: murine Fc region
T3 sequence (P08581 25-932): as above
Method: c-Met ECD-mFc (Example 1) was diluted in PBS (Hyclone, Cat #SH30256.01B) with a final concentration of 2 μg/ml, and then a 96-well ELISA plate (Costar, cat#2592) was coated with c-Met ECD-mFc at room temperature overnight. The plate was washed with PBST (PBS+0.05% tween 20, Simga, Cat#P1379) 3 times on a plate washer (Suppler: BioTex; Model: ELX405; S/N: 251504). 300 μl blocking solution PBS+1% BSA (Roche, Cat #738328) was added to the 96-well plate, and the plate was incubated for 60 minutes at 37° C. After the plate was washed with PBST 3 times, 50 μl of antibody diluted by blocking solution was added to the 96-well plate, and the plate was incubated for 90 minutes at 37° C. […] After the plate was washed with PBST 3 times, 100 μl of horseradish peroxidase (ebioscience, #18-4100-51) diluted with blocking solution was added to the 96-well plate and incubated for 30 minutes. After the plate was washed with PBST 3 times, 100 μl substrate (ebioscience, cat#00-4201-56) was added to the plate and incubated for 10 minutes at room temperature. 100 μl stop solution (2N H₂SO₄) was added, and data was read by a […] microplate reader (Supplier: Moleculer Devices; Model: MNR0643; Equip ID: TMRP001). Data analysis was performed by SoftMax Pro v5.

[6] = target: T4, Human c-Met extracellular Sema region and Flag-His tag (Human c-Met Sema-Flis) (human, UniProt P08581 25-515, limits assumed); experiment: SPR (Biacore), antibody captured by anti-human IgG, Sema-His 200-0.78 nM as analyte, 1:1 Langmuir
T4 construct: domain: extracellular Sema region; Expressed in 293F cells; also called Sema-His; c-Met antigen Sema-His; not shown: C-terminal Flag-His tag
T4 sequence (P08581 25-515 limits assumed): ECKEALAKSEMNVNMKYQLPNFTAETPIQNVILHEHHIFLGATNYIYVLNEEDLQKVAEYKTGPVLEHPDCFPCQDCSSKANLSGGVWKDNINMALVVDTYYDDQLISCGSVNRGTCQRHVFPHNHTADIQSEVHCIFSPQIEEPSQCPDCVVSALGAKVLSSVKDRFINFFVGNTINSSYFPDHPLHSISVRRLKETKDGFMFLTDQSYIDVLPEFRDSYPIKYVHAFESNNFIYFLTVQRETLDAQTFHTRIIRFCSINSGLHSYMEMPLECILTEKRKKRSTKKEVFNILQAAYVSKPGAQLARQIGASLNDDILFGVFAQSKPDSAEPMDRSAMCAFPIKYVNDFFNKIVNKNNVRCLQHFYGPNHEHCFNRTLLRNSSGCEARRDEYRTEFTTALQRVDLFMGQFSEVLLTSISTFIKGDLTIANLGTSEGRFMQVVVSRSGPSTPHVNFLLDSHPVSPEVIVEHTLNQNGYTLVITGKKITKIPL
Method: Anti-mouse IgG (GE Life Sciences catalog # BR-1008-38) or anti-human IgG (GE Life Sciences catalog # BR-1008-39) antibodies were respectively diluted to 30 μg/ml and 50 μg/ml by sodium acetate solution, pH 5.0 (GE Healthcare, Cat#BR-1003-51). An amino coupling kit (GE Life Sciences, Cat#BR100050) was immobilized onto the test channels and control channels on a CMS chip (GE Life Sciences catalog # BR-1000-12), and the coupling level was set at 15000RU. Running buffer PBS (Hyclone, Cat#SH30256.01B)+0.05% P20 (GE Life Sciences, Cat#BR-1000-54) was used to dilute the c-Met antibody to 1.5 μg/ml. Antigen Sema-His was diluted to 200 nM with running buffer, and then diluted at a 1:2 dilution with the same buffer until it reached 0.78 nM. The diluted antibody passed through the test channel for 1 minute at a speed of 30 μl/min, and the antigen passed through the test channels and control channels for 3 minutes at the same speed. After 10 minutes of dissociation, the flow speed was adjusted to 10 μl/min, and regeneration buffer was passed through test channels and control channels for 3 minutes. Data was fitted by BiaEvaluation 4.1 after double deduction, and the fitting model was a 1:1 Langmuir model.

T1 sequence (P08581 25-1390): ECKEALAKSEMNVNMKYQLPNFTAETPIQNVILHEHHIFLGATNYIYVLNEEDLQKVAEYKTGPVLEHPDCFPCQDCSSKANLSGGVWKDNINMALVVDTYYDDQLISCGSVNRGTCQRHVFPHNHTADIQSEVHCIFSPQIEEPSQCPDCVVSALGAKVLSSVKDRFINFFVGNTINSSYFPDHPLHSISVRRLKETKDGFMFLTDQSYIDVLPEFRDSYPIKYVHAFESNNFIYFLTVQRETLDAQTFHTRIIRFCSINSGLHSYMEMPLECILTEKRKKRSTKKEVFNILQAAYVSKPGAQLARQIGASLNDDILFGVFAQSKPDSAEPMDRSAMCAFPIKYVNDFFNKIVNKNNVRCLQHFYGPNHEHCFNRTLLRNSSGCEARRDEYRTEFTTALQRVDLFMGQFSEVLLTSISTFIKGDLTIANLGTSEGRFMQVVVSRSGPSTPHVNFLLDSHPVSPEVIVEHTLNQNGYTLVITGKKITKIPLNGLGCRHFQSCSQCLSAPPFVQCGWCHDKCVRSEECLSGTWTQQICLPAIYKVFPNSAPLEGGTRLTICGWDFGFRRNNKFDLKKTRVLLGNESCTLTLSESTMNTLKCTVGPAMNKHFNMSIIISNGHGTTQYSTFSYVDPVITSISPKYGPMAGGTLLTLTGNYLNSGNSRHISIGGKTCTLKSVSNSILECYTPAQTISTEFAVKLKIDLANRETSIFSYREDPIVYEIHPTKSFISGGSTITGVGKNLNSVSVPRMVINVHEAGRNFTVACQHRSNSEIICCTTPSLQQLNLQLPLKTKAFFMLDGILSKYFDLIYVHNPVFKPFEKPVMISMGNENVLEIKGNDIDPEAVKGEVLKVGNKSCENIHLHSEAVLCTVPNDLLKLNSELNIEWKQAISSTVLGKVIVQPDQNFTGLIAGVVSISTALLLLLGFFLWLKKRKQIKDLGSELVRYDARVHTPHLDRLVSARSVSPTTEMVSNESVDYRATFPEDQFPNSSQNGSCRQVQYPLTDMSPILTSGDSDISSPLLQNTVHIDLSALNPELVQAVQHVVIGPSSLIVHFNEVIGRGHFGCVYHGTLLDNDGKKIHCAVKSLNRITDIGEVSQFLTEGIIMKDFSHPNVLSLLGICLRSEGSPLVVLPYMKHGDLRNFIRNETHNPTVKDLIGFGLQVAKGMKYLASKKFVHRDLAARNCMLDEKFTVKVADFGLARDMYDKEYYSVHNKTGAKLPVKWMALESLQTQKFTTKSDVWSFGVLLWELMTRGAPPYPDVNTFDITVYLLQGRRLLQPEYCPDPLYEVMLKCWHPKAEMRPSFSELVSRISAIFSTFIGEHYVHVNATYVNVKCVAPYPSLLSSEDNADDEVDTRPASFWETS

B1: Anti-c-Met antibody Ab-10-toxin MC-MMAF conjugate (antibody, human IgG2, kappa, V domains shown)
VH: QVQLVESGGGVVQPGRSLRLSCAASGFSLSNYGVHWVRQAPGKGLEWLAVIWSGGSTNYAAAFVSRLTISKDNSKNTVYLQMNSLRAEDTAVYYCARNHDNPYNYAMDYWGQGTTVTVSS
VL: DIVLTQSPDSLAVSLGERATINCRADKSVSTSTYNYLHWYQQKPGQPPKLLIYLASNLASGVPDRFSGSGSGTDFTLTISSLQAEDVAVYYCQHSRDLPPTFGQGTKLEIKR
modifications: MC-MMAF coupled through a propyl mercaptan linker put on the antibody; average y=1.7 per antibody; chain and residues not stated
[1]
  IC50 (nM) in MKN45 cell (cytotoxicity, ATP assay): 0.51 nM
[2]
  Inhibition of proliferation of BxPC3 cells (CCK), IC50: 6.9 nM
  Inhibition of proliferation of Caki-1 cells (CCK), IC50: 6.5 nM
  Inhibition of proliferation of MKN45 cells (CCK), IC50: 0.17 nM
  Inhibition of proliferation of NCI-H596 cells (CCK), IC50: 104 nM
  Inhibition of proliferation of NCI-H1993 cells (CCK), IC50: 2.8 nM
  Inhibition of proliferation of PC9 cells (CCK), IC50: 5.6 nM
  Inhibition of proliferation of SNU5 cells (CCK), IC50: 0.24 nM

B2: Anti-c-Met antibody Ab-10-toxin conjugate (Example 24) (antibody, V domains shown)
VH: B1 VH
VL: B1 VL
modifications: toxin intermediate 12h (maleimidocaproyl derivative of toxin 12g) coupled through a propyl mercaptan linker put on the antibody; average y=1.6 per antibody; chain and residues not stated
[1]
  IC50 (nM) in MKN45 cell (cytotoxicity, ATP assay): 0.59 nM

B3: Ab-9 humanized antibody (antibody, human IgG2, kappa)
heavy: QVTLKESGPVLVKPTETLTLTCTVSGFSLPNYGVHWVRQPPGKALEWLAVIWSGGSTNYAAAFVSRLRISKDTSKSQVVFTMNNMDPVDTATYYCARNHDNPYNYAMDYWGQGTTVTVSSASTKGPSVFPLAPCSRSTSESTAALGCLVKDYFPEPVTVSWNSGALTSGVHTFPAVLQSSGLYSLSSVVTVPSSNFGTQTYTCNVDHKPSNTKVDKTVERKCCVECPPCPAPPVAGPSVFLFPPKPKDTLMISRTPEVTCVVVDVSHEDPEVQFNWYVDGVEVHNAKTKPREEQFNSTFRVVSVLTVVHQDWLNGKEYKCKVSNKGLPAPIEKTISKTKGQPREPQVYTLPPSREEMTKNQVSLTCLVKGFYPSDIAVEWESNGQPENNYKTTPPMLDSDGSFFLYSKLTVDKSRWQQGNVFSCSVMHEALHNHYTQKSLSLSPGK
light: DIVLTQSPASLAVSPGQRATITCRANKSVSTSTYNYLHWYQQKPGQPPKLLIYLASNLASGVPARFSGSGSGTDFTLTINPVEANDTANYYCQHSRDLPPTFGQGTKLEIKRTVAAPSVFIFPPSDEQLKSGTASVVCLLNNFYPREAKVQWKVDNALQSGNSQESVTEQDSKDSTYSLSSTLTLSKADYEKHKVYACEVTHQGLSSPVTKSFNRGEC
notes: human constant regions, kappa light chain
[3]
  Activity of inhibition of MKN45 cell proliferation, IC50: 0.52 nM
[4]
  EC50: 0.13 nM
[5]
  IC50: 1.42 nM
[6]
  Kd: 4 nM

B4: Ab-10 humanized antibody (antibody, human IgG2, kappa)
heavy: QVQLVESGGGVVQPGRSLRLSCAASGFSLSNYGVHWVRQAPGKGLEWLAVIWSGGSTNYAAAFVSRLTISKDNSKNTVYLQMNSLRAEDTAVYYCARNHDNPYNYAMDYWGQGTTVTVSSASTKGPSVFPLAPCSRSTSESTAALGCLVKDYFPEPVTVSWNSGALTSGVHTFPAVLQSSGLYSLSSVVTVPSSNFGTQTYTCNVDHKPSNTKVDKTVERKCCVECPPCPAPPVAGPSVFLFPPKPKDTLMISRTPEVTCVVVDVSHEDPEVQFNWYVDGVEVHNAKTKPREEQFNSTFRVVSVLTVVHQDWLNGKEYKCKVSNKGLPAPIEKTISKTKGQPREPQVYTLPPSREEMTKNQVSLTCLVKGFYPSDIAVEWESNGQPENNYKTTPPMLDSDGSFFLYSKLTVDKSRWQQGNVFSCSVMHEALHNHYTQKSLSLSPGK
light: DIVLTQSPDSLAVSLGERATINCRADKSVSTSTYNYLHWYQQKPGQPPKLLIYLASNLASGVPDRFSGSGSGTDFTLTISSLQAEDVAVYYCQHSRDLPPTFGQGTKLEIKRTVAAPSVFIFPPSDEQLKSGTASVVCLLNNFYPREAKVQWKVDNALQSGNSQESVTEQDSKDSTYSLSSTLTLSKADYEKHKVYACEVTHQGLSSPVTKSFNRGEC
notes: as for B3
[3]
  Activity of inhibition of MKN45 cell proliferation, IC50: 0.55 nM
[2]
  Inhibition of proliferation of BxPC3 cells (CCK), IC50: > 1000 nM
  Inhibition of proliferation of Caki-1 cells (CCK), IC50: > 1000 nM
  Inhibition of proliferation of MKN45 cells (CCK), IC50: 0.15 nM
  Inhibition of proliferation of NCI-H596 cells (CCK), IC50: 13.7 nM
  Inhibition of proliferation of PC9 cells (CCK), IC50: > 1000 nM
  Inhibition of proliferation of SNU5 cells (CCK), IC50: 0.1 nM
[4]
  EC50: 0.39 nM
[5]
  IC50: 1.5 nM
[6]
  Kd: 8 nM

B5: Ab-11 humanized antibody (antibody, human IgG2, kappa, V domains shown)
VH: B1 VH with S28T, S30P
VL: B1 VL with D26N
notes: as for B3
[4]
  EC50: 0.2 nM
